Six molecules from patent publication US20190010233A1 (JIANGSU HYAMAB PHARMACEUTICAL, published 2019) can be followed below.

Changes are numbered by the printed parent chain.

B1: chimeric anti-PD-L1 antibody 192D9E7 (antibody, V domains shown)
VH: EVQLVESGGGLVQPGGSLRLSCAASGFTFSSYWMSWVRQAPGKGLEWVADIKQDGSEKYYVDSVKGRFTISRDNAKNSLYLQMNSLRAEDTAVYYCTRDKPHWGGVMDAWGQGTSVTVSS
VL: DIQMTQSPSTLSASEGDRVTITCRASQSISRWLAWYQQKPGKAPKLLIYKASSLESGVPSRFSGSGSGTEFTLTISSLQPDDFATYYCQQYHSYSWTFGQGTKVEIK
notes: Purified from hybridoma of Harbour H2L2 mice: human variable regions, rat constant regions
B2: chimeric anti-PD-L1 antibody 73G11B3 (antibody, V domains shown)
VH: EVQLVESGGGLVQPGGSLRLSCVVSGFTFSSYWMSWVRQTPGKGLEWVANIKQDGSEKYYVDSVKGRLTISRDNAKNSLYLQMNSLRAEDTAVYYCVRDRAVPGTGALDIWGQGTMVTVSS
VL: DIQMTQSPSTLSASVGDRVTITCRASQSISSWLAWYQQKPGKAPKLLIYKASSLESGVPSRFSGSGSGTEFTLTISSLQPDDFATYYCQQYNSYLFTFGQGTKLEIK
notes: as for B1
B3: chimeric anti-PD-L1 antibody 127D2F3 (antibody, V domains shown)
VH: EVQLVESGGGLVQPGGSLRLSCVASGFTFSSYWMSWVRQAPGKGLEWVANIKQDGSEKYYVDSVKGRLTISRDNAKNSLYLQMKSLRAEDTAVYYCARDPIYSSYFDYWGQGILVTVSS
VL: DIQMTQSPSSLSASVGDRVTITCRASQSISNYLNWYQQKPGKAPKLLIYAASSLQSGVPSRFSGSGSGTDFTLTISSLQPEDFAAYYCQQSYGIPFTFGPGTKVDIK
notes: as for B1
B4: chimeric anti-PD-L1 antibody 73D3G2 (antibody, V domains shown)
VH: EVQLVESGGGLVQPGGSLRLSCAASGFTFNTYWMNWVRQAPGRGLEWVANIKQDGGEKYYVDSVKGRFTISRDNAKNSLYLQMNSLRAEDTAMYYCARDGRSWYPDAFDIWGQGTVVTVSS
VL: DIQMTQSPSTLSASVGDRVTITCRASQSISTWLAWYQQKLGKAPKLLIYEVSILESGVPSRFSGSGSGTEFTLTISSLQPDDFATYYCQQYHSFSSFGGGTRVEIK
notes: as for B1
B5: chimeric anti-PD-L1 antibody 78A11F6 (antibody, V domains shown)
VH: B2 VH with V23A, V24A, F27I, D62K, L68F, L108F, T118I
VL: DIQMTQSPSTLSASVGDRVTITCRASQSISNWLAWYQQKPGKAPKLLIYKASSLESGVPSRFSGSGSGTEFTLTISSLQPDDFATYYCQQYDSSLFTFGQGTKLEIK
notes: as for B1
B6: chimeric anti-PD-L1 antibody 105C5D7 (antibody, V domains shown)
VH: EVQLVESGGGLVQPGGSLRLSCAASGFTFSSYWMSWVRQAPGKGLEWVANIKQDGNEKYYVDSVKGRFTISRDNAKNSLYLQMNSLRAEDTAVYYCARNIKWGDAFDIWGQGTMVTVSS
VL: B3 VL with N31S, A85I, Y87S, G93S, F96L, P100G, D105E
notes: as for B1

T2 sequence (Q9NZQ7 19-290 limits assumed): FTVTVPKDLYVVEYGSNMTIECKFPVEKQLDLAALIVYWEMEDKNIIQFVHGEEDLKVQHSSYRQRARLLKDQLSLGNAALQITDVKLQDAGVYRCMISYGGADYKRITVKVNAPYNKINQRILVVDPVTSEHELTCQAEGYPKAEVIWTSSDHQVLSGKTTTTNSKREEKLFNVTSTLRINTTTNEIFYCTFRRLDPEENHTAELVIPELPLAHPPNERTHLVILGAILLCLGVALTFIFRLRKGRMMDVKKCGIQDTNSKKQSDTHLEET
T3 sequence (G7PSE7 entry or part of it limits assumed): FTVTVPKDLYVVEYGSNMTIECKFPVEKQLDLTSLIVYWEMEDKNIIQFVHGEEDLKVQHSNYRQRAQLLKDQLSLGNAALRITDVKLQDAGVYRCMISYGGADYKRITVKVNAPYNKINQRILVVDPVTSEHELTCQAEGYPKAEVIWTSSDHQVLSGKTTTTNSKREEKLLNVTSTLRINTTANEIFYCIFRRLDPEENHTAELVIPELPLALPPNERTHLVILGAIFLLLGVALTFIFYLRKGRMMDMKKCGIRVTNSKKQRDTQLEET
T1 sequence (Q9NZQ7 19-239): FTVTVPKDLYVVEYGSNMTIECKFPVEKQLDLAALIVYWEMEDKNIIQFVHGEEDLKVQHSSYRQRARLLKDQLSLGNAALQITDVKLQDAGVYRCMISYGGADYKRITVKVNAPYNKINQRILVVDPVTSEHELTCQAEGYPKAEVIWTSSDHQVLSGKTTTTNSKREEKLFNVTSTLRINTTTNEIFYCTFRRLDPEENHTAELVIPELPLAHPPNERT

One experiment addresses T1, human PD-L1^ECD-hFc protein (human, UniProt Q9NZQ7 19-239, biotinylated in the PD-1 binding ELISA (Table 3) and in the Octet assay (Table 12)).
T1 construct: The plain and the biotinylated protein are kept as one molecule; also called PD-L1-hFc; Immunogen A; not shown: human IgG Fc fragment (hFc)
In words: ELISA, 1 nM mAb. As for the experimental part: (§1) 100 μL of the diluted recombinant proteins were added to each well of 96-well plate. The plates were sealed with plastic film and incubated at 4° C. overnight. The plates were washed twice with wash buffer (PBS+0.01% (v/v) Tween20), and incubated with blocking buffer (PBS+0.01% (v/v) Tween20+1% (w/w) BSA) at room temperature for 2 hours. The blocking buffer was aspirated away, and 100 μL of purified anti-PD-L1 antibodies were added to each well and incubated for 2 hours at 37° C. The plates were washed three times with wash buffer (PBS+0.01% (v/v) Tween20). HRP-conjugated secondary antibody (Sigma) was added to each well and incubated for 2 hours at 37° C. After the plates were washed three times with wash buffer, 100 μL TMB substrate were added to each well, and the plates were incubated for 30 minutes at room temperature. 100 μL stop solution (0.1N HCl) was added to each well to stop the reaction.
Molecule B1 registered an OD450 nm of 2.77.
With B2, the OD450 nm is 2.7.
Turning to B3, the OD450 nm amounted to 2.8.

In another experiment the target is T1, human PD-L1^ECD-hFc protein. In words: ELISA, 0.1 nM mAb. As for the experimental part:
as §1
In turn, B1 showed an OD450 nm of 1.55.
B2 registered an OD450 nm of 0.88.
Turning to B3, the OD450 nm stood at 1.65.

For a further experiment the target is unchanged. In words: ELISA, 100 nM mAb. As for the experimental part:
as §1
In the case of B1, the OD450 nm was 2.7.
Take B2: the OD450 nm was 2.69.
The same measure, in the same setting: under B3 stands 2.63.

Another experiment shares this target. The experiment in a line: ELISA, 3.333 nM mAb. As for the experimental part:
as §1
(In an ELISA, binding on a coated surface is turned into a signal by an enzyme label.)
Molecule B4 registered an OD450 nm of 2.03.
Take B5: the OD450 nm stood at 1.73.
For B6, the OD450 nm was 1.5.

For a further experiment the target is unchanged. The experiment in a line: ELISA, 0.0001 nM mAb. As to the method:
as §1
B1 came in with an OD450 nm of 0.21.
The molecule B2 yielded an OD450 nm of 0.2.
B3 had an OD450 nm of 0.2.

Another experiment concerns the target T2, full length human PD-L1 on cells (human, UniProt Q9NZQ7 19-290). In words: cell-based or functional assay.
Regarding B1, the “IL-2 (pg/mL), MLR donor 2, 0.001 µg/mL mAb” value came to 73.4 pg/mL; the “IL-2 (pg/mL), MLR donor 2, 0.01 µg/mL mAb” value amounted to 130 pg/mL; the “IL-2 (pg/mL), MLR donor 2, 0.1 µg/mL mAb” value is 120 pg/mL; the “IL-2 (pg/mL), MLR donor 2, 1 µg/mL mAb” value came out at 94.4 pg/mL.
Taken in the same sequence, the figures for B2 were 54.2 pg/mL, 90.1 pg/mL, 110 pg/mL and 140 pg/mL.
B3: the “IL-2 (pg/mL), MLR donor 2, 0.001 µg/mL mAb” value was 68.2 pg/mL; the “IL-2 (pg/mL), MLR donor 2, 0.01 µg/mL mAb” value was 100 pg/mL; the “IL-2 (pg/mL), MLR donor 2, 0.1 µg/mL mAb” value turned out to be 71.5 pg/mL; the “IL-2 (pg/mL), MLR donor 2, 1 µg/mL mAb” value came to 101 pg/mL.

A further experiment has as its target T2, full length human PD-L1 on cells. In words: cell-based or functional assay. This is another data set of the same source.
Turning to B1, the “IFN-γ (pg/mL), MLR, 0.001 µg/mL mAb” value was 221 pg/mL; the “IFN-γ (pg/mL), MLR, 0.01 µg/mL mAb” value stood at 2000 pg/mL; the “IFN-γ (pg/mL), MLR, 0.1 µg/mL mAb” value is 3120 pg/mL; the “IFN-γ (pg/mL), MLR, 1 µg/mL mAb” value was determined as 3300 pg/mL. For the same molecule, the “IFN-γ (pg/mL), MLR, 10 µg/mL mAb” value amounted to 4080 pg/mL.
For B2, the “IFN-γ (pg/mL), MLR, 0.001 µg/mL mAb” value worked out at 1520 pg/mL; the “IFN-γ (pg/mL), MLR, 0.01 µg/mL mAb” value amounted to 3750 pg/mL; the “IFN-γ (pg/mL), MLR, 0.1 µg/mL mAb” value came out at 5740 pg/mL; the “IFN-γ (pg/mL), MLR, 1 µg/mL mAb” value worked out at 6480 pg/mL. For the same molecule, the “IFN-γ (pg/mL), MLR, 10 µg/mL mAb” value is 6950 pg/mL.
For the molecule B3, the “IFN-γ (pg/mL), MLR, 0.001 µg/mL mAb” value amounted to 599 pg/mL; the “IFN-γ (pg/mL), MLR, 0.01 µg/mL mAb” value was found to be 1560 pg/mL; the “IFN-γ (pg/mL), MLR, 0.1 µg/mL mAb” value is 3010 pg/mL; the “IFN-γ (pg/mL), MLR, 1 µg/mL mAb” value worked out at 2840 pg/mL. Moreover, the “IFN-γ (pg/mL), MLR, 10 µg/mL mAb” value was 4840 pg/mL.

Another experiment concerns the target T3, full length cyno PD-L1 on cells (cyno, UniProt G7PSE7 19-290).
T3 construct: also called CHO-K1-cPD-L1
The experiment in a line: FACS CHO-K1-cPD-L1, 10 nM mAb. As for the experimental part: (§2) Other CHO-K1 were stably transfected with a pIRES plasmid containing the nucleic acid sequence encoding full length cyno PD-L1 to generate CHO-K1 cells stably expressing cyno PD-L1 (herein referred to as CHO-K1-cPD-L1 cells). […] The culture media was aspirated, and the cells were washed twice with HBSS (Hanks Balanced Salt Solution, Invitrogen). The cells were treated with enzyme-free cell dissociation solution (Versene solution, Invitrogen) and collected. The cells were then washed twice with HBSS, cell counts were determined, and cells were resuspended with HBSS at 2×10⁶ cells/mL. Goat serum was added to the cell suspension to a final concentration of 1%, and the cells were blocked for 30 minutes on ice and then washed twice with HBSS. The cells were collected after centrifugation and resuspended in FACS buffer (HBSS+1% BSA, v/v) at 2×10⁶ cells/mL. 100 μL of the cell suspension were then added to each well of 96-well plate. 100 μL of purified anti-PD-L1 antibodies from Example 2 were added to each well of the 96-well plate and incubated for 2 hours on ice. […] The samples were washed three times with FACS buffer, and 100 μL fixation buffer (4% paraformaldehyde v/v) were added to each well and incubated for 10 minutes. The cells were then washed twice with FACS buffer and resuspended in 100 μL FACS buffer. The mean fluorescence intensity (MFI) was determined using FACS Calibur (BD), and the results are shown in FIGS. 7-8 and in Tables 10-11.
Molecule B1 returned a Mean fluorescence intensity of 82.3.
B2 had a Mean fluorescence intensity of 99.2.
Same read-out and setting: under B3 stands 105.

The next experiment deals with T3, full length cyno PD-L1 on cells. In words: FACS CHO-K1-cPD-L1, 0.1 nM mAb. As to the method:
as §2
B1 showed a Mean fluorescence intensity of 17.
B2 showed a Mean fluorescence intensity of 19.8.
Regarding B3, the Mean fluorescence intensity is 14.3.

A further experiment deals with T2, full length human PD-L1 on cells. In words: FACS CHO-K1-hPD-L1, 0.01 nM mAb.
In turn, B1 had a Mean fluorescence intensity of 7.85.
On to B2, for which the Mean fluorescence intensity came out at 3.96.
On the same count and under the same terms, under B3 stands 5.31.

The next experiment has the same target. In words: FACS CHO-K1-hPD-L1, 0.14 nM mAb. As to the method: as §2
B4 had a Mean fluorescence intensity of 44.3.
Same read-out and setting: under B5 stands 51.5; under B6, 73.2.

The target is the same in the next experiment. The experiment in a line: FACS CHO-K1-hPD-L1, 3.70 nM mAb. As to the method: as §2
B4 returned a Mean fluorescence intensity of 113.
On to B5, for which the Mean fluorescence intensity turned out to be 199.
Molecule B6 yielded a Mean fluorescence intensity of 203.

The next experiment concerns the target T3, full length cyno PD-L1 on cells. The experiment in a line: FACS CHO-K1-cPD-L1, 0.41 nM mAb. As for the experimental part: as §2
On to B4, for which the Mean fluorescence intensity amounted to 83.2.
As for B5, the Mean fluorescence intensity is 74.5.
B6 returned a Mean fluorescence intensity of 83.8.

The next experiment shares this target. In words: FACS CHO-K1-cPD-L1, 3.70 nM mAb. As to the method: as §2
As to B4, the Mean fluorescence intensity was found to be 126.
Molecule B5 showed a Mean fluorescence intensity of 139.
Regarding B6, the Mean fluorescence intensity was 142.

For the next experiment the target is unchanged. In words: FACS CHO-K1-cPD-L1, 0.001 nM mAb. As for the experimental part:
as §2
In turn, B1 showed a Mean fluorescence intensity of 1.93.
For the molecule B2, the Mean fluorescence intensity was 2.02.
In turn, B3 showed a Mean fluorescence intensity of 1.91.

The next experiment has the same target. The experiment in a line: FACS CHO-K1-cPD-L1, 33.33 nM mAb. As for the experimental part: as §2
Molecule B4 came in with a Mean fluorescence intensity of 137.
The molecule B5 yielded a Mean fluorescence intensity of 143.
Regarding B6, the Mean fluorescence intensity was 133.

The target of another experiment is T2, full length human PD-L1 on cells. In words: FACS CHO-K1-hPD-L1, 0.0001 nM mAb. As to the method:
as §2
Turning to B1, the Mean fluorescence intensity is 3.58.
In the case of B2, the Mean fluorescence intensity was 1.87.
Turning to B3, the Mean fluorescence intensity is 4.04.

The target in a further experiment is T3, full length cyno PD-L1 on cells. In words: FACS CHO-K1-cPD-L1, 0.001 nM mAb as printed (second such column). As to the method: as §2
In turn, B1 showed a Mean fluorescence intensity of 1.75.
The molecule B2 displayed a Mean fluorescence intensity of 1.78.
For the molecule B3, the Mean fluorescence intensity turned out to be 1.78.
